Measurements reported in article PMC4885069.
Several values for one entry are separate records, joined by “and”; a condition that tells them apart may be missing. Identical values can stand only once. Like-named read-outs stand apart in the source and are kept apart here.

Key:
[1] = biological target: synaptotagmin LD (Rattus norvegicus) (UniProt P29101); test: ITC; settings: cited from earlier work
[2] = biological target: GST-hSV2C 455-579 (human synaptic vesicle glycoprotein 2C, luminal domain 4, GST fusion) (UniProt Q496J9); settings: 25 °C, PBS (composition not given) at pH 7.3, 150 mM NaCl at pH 5.0
[3] = biological target: GST-hSV2C 455-579 (human synaptic vesicle glycoprotein 2C, luminal domain 4, GST fusion) (UniProt Q496J9); test: SPR (Biacore X100), kinetic evaluation; settings: pH 7.3; 25 °C; PBS (composition not given) at pH 7.3; PBS (pH 7.3)

Chain of UniProt Q496J9 (Q496J9 whole entry, the tested form may be a part): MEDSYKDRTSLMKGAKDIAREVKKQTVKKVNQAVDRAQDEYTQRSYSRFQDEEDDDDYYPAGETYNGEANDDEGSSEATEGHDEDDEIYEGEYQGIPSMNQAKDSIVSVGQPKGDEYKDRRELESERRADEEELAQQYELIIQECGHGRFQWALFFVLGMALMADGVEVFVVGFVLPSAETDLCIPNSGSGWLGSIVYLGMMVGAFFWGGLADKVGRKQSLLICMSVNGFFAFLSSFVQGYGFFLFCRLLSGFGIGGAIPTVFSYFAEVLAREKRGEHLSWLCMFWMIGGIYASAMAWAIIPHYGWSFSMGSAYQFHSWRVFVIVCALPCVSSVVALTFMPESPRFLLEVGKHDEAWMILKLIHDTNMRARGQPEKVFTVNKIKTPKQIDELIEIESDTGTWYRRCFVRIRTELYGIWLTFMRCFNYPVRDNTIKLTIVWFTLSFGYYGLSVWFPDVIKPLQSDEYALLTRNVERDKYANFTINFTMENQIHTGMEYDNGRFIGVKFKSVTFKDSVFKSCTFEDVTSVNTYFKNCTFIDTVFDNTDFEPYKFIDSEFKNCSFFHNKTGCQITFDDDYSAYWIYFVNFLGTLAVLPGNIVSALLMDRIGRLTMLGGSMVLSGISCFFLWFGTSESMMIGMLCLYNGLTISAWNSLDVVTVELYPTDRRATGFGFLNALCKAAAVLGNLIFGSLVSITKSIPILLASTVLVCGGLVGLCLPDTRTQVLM
Chain of UniProt P29101 (P29101 1-60): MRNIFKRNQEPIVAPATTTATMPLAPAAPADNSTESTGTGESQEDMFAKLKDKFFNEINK

Row | Substance | Kd [1] | KD Steady State ([2]; pH 5.0) [µM] | KD Steady State ([2]; pH 7.3) [µM] | KD Kinetics [3] [µM] | ka [3] [M⁻¹ s⁻¹] | kd [3] [s⁻¹]
1 | BoNT/B (from UniProt P10844) | 0.14 µM and 0.034 µM | – | – | – | – | –
2 | Botulinum neurotoxin serotype A HC fragment (HCA / HCAS), 50 kDa cell-binding domain | – | > 1.2 | 0.4 | 0.39 | 310000 | 0.12
